Consider six substances from publication PMC5444381.

Read-outs that look alike come from different tables or passages of the source.

Experiment [1] addresses BaL.01 Env trimeric spikes on pseudotyped viruses (HIV-1 BaL.01).
Experiment [2] shares this target. The source holds these as a separate data set.
Experiment [3] has the same target. The source holds these as a separate data set.

In experiment [1], DAVEI-L4(ΔCRAC)-W3,7,9,15A gave an IC50 of inhibition of HIV-1 BaL.01 pseudovirus infection of HOS.T4.R5 cells of 0.78 nM. Moreover, the EC50 of virolysis (p24 release from HIV-1 BaL.01 pseudovirus, sandwich ELISA) in experiment [2] came out at 122 nM.

With DAVEI-L4(ΔCRAC), in experiment [3], the EC50 of virolysis (p24 release from HIV-1 BaL.01 pseudovirus, sandwich ELISA) amounted to 28.3 nM and the IC50 of inhibition of HIV-1 BaL.01 pseudovirus infection of HOS.T4.R5 cells stood at 1.1 nM. Turning to DAVEI-L4(ΔCRAC)W9,15A, the IC50 of inhibition of HIV-1 BaL.01 pseudovirus infection of HOS.T4.R5 cells in experiment [1] is 0.45 nM. For the same substance, in experiment [2], the EC50 of virolysis (p24 release from HIV-1 BaL.01 pseudovirus, sandwich ELISA) was found to be 49.7 nM.

On to DAVEI-L4(ΔMPER), for which the IC50 of inhibition of HIV-1 BaL.01 pseudovirus infection of HOS.T4.R5 cells in experiment [3] came out at 1.4 nM. DAVEI-L4(ΔCRAC)-W7,9,15A displayed an IC50 of inhibition of HIV-1 BaL.01 pseudovirus infection of HOS.T4.R5 cells in experiment [1] of 0.36 nM. For the same substance, the EC50 of virolysis (p24 release from HIV-1 BaL.01 pseudovirus, sandwich ELISA) in experiment [2] stood at 43.1 nM. The like results for DAVEI-L4(ΔCRAC)W15A were, in that order, 0.4 nM and 46.8 nM.
